Measured values: US9738911B2, “Methods of producing 7-carbon chemicals via pyruvate and succinate semialdehyde aldol condensation” (INVISTA North America S.a r.l., priority 2012, dated 2017)

Tests used:
Assay type in all cases: biochemical
[1] = Thioesterase enzyme activity assay, pimeloyl-CoA to pimelate; conditions: 667 μM pimeloyl-CoA, 0.8 μM enzyme, 37° C., 20 min, pH 7.4; compared to empty vector control (FIG. 8)
Experimental: A sequence encoding an N-terminal His tag was added to the tesB gene from Escherichia coli that encodes a thioesterase (SEQ ID NO 1, see FIG. 7A), such that an N-terminal HIS tagged thioesterase could be produced. The modified tesB gene was cloned into a pET15b expression vector under control of the T7 promoter. The expression vector was transformed into a BL21[DE3] E. coli host. The resulting recombinant E. coli strain was cultivated at 37° C. in a 500 mL shake flask culture containing 50 mL Luria Broth (LB) media and antibiotic selection pressure, with shaking at 230 rpm. The culture was induced overnight at 17° C. using 0.5 mM IPTO.
The pellet from the induced shake flask culture was harvested via centrifugation. The pellet was resuspended and lysed in Y-Per™ solution (ThermoScientific, Rockford, Ill.). The cell debris was separated from the supernatant via centrifugation. […]
The enzyme activity assay was performed in triplicate in a buffer composed of 50 mM phosphate buffer (pH=7.4), 0.1 mM Ellman's reagent, and 667 μM of pimeloyl-CoA (as substrate). […] The release of Coenzyme A was monitored by absorbance at 412 nm. The absorbance associated with the substrate only control, which contained boiled enzyme, was subtracted from the active enzyme assay absorbance and compared to the empty vector control.

[2] = Carboxylate reductase activity assay, pimelate to pimelate semialdehyde; conditions: 2 mM pimelate, 1 mM ATP, 1 mM NADPH, enhanced by sfp gene product, room temperature, 20 min; against empty vector control (FIG. 10)
Experimental: A sequence encoding a HIS-tag was added to the genes from Segniliparus rugosus and Segniliparus rotundus that encode the carboxylate reductases of SEQ ID NOs: 4 and 7, respectively (see FIGS. 7C and 7F), such that N-terminal HIS tagged carboxylate reductases could be produced. Each of the modified genes was cloned into a pET Duet expression vector along with a sfp gene encoding a HIS-tagged phosphopantetheine transferase from Bacillus subtilis, both under the T7 promoter. Each expression vector was transformed into a BL21[DE3] E. coli host and the resulting recombinant E. coli strains were cultivated at 37° C. in a 250 mL shake flask culture containing 50 mL LB media and antibiotic selection pressure, with shaking at 230 rpm. Each culture was induced overnight at 37° C. using an auto-induction media.
The pellet from each induced shake flask culture was harvested via centrifugation. Each pellet was resuspended and lysed via sonication, and the cell debris was separated from the supernatant via centrifugation. […]
Enzyme activity assays (i.e., from pimelate to pimelate semialdehyde) were performed in triplicate in a buffer composed of a final concentration of 50 mM HEPES buffer (pH=7.5), 2 mM pimelate, 10 mM MgCl, 1 mM ATP and 1 mM NADPH. […] The consumption of NADPH was monitored by absorbance at 340 nm.

[3] = Carboxylate reductase activity assay, pimelate semialdehyde to heptanedial; conditions: 2 mM pimelate semialdehyde, 1 mM ATP, 1 mM NADPH, enhanced by sfp gene product, room temperature, 20 min; against empty vector control (FIG. 13)
Experimental: The N-terminal His-tagged carboxylate reductase of SEQ ID NO 7 (see Example 4 and FIG. 7F) was assayed using pimelate semialdehyde as substrate. The enzyme activity assay was performed in triplicate in a buffer composed of a final concentration of 50 mM HEPES buffer (pH=7.5), 2 mM pimelate semialdehyde, 10 mM MgCl2, 1 mM ATP and 1 mM NADPH. The enzyme activity assay reaction was initiated by adding purified carboxylate reductase and phosphopantetheine transferase or the empty vector control to the assay buffer containing the pimelate semialdehyde and then incubated at room temperature for 20 min. The consumption of NADPH was monitored by absorbance at 340 nm.

[4] = Carboxylate reductase activity assay, N7-acetyl-7-aminoheptanoate to N7-acetyl-7-aminoheptanal; conditions: 2 mM N7-acetyl-7-aminoheptanoate, 1 mM ATP, 1 mM NADPH, enhanced by sfp gene product, room temperature, 20 min; against empty vector control (FIG. 12)
Experimental: The activity of each of the N-terminal His-tagged carboxylate reductases of SEQ ID NOs: 3, 6, and 7 (see Examples 4, and FIGS. 7B, 7E, and 7F) for converting N7-acetyl-7-aminoheptanoate to N7-acetyl-7-aminoheptanal was assayed in triplicate in a buffer composed of a final concentration of 50 mM HEPES buffer (pH=7.5), 2 mM N7-acetyl-7-aminoheptanoate, 10 mM MgCl2, 1 mM ATP, and 1 mM NADPH. The assays were initiated by adding purified carboxylate reductase and phosphopantetheine transferase or the empty vector control to the assay buffer containing the N7-acetyl-7-aminoheptanoate then incubated at room temperature for 20 min. The consumption of NADPH was monitored by absorbance at 340 nm.

substrate acceptance, release of Coenzyme A monitored by absorbance at 412 nm [1] | substrate acceptance, consumption of NADPH by absorbance at 340 nm [2] | Molecule | substrate acceptance, consumption of NADPH by absorbance at 340 nm [3] | substrate acceptance, consumption of NADPH by absorbance at 340 nm [4]
accepted pimeloyl-CoA as substrate | – | gene product of tesB: Escherichia coli thioesterase encoded by tesB (GenBank Accession No. AAA24665.1) (protein, listed as Escherichia coli) MSQALKNLLTLLNLEKIEEGLFRGQSEDLGLRQVFGGQVVGQALYAAKETVPEERLVHSFHSYFLRPGDSKKPIIYDVETLRDGNSFSARRVAAIQNGKPIFYMTASFQAPEAGFEHQKTMPSAPAPDGLPSETQIAQSLAHLLPPVLKDKFICDRPLEVRPVEFHNPLKGHVAEPHRQVWIRANGSVPDDLRVHQYLLGYASDLNFLPVALQPHGIGFLEPGIQIATIDHSMWFHRPFNLNEWLLYSVESTSASSARGFVRGEFYTQDGVLVASTVQEGVMRNHN | – | –
– | accepted pimelate as substrate | SEQ ID NO 7: Segniliparus rotundus carboxylate reductase (Genbank Accession No. ADG98140.1) (protein, listed as Segniliparus rotundus) MTQSHTQGPQASAAHSRLARRAAELLATDPQAAATLPDPEVVRQATRPGLRLAERVDAILSGYADRPALGQRSFQTVKDPITGRSSVELLPTFDTITYRELRERATAIASDLAHHPQAPAKPGDFLASIGFISVDYVAIDIAGVFAGLTAVPLQTGATLATLTAITAETAPTLFAASIEHLPTAVDAVLATPSVRRLLVFDYRAGSDEDREAVEAAKRKIADAGSSVLVDVLDEVIARGKSAPKAPLPPATDAGDDSLSLLIYTSGSTGTPKGAMYPERNVAHFWGGVWAAAFDEDAAPPVPAINITFLPLSHVASRLSLMPTLARGGLMHFVAKSDLSTLFEDLKLARPTNLFLVPRVVEMLYQHYQSELDRRGVQDGTREAEAVKDDLRTGLLGGRILTAGFGSAPLSAELAGFIESLLQIHLVDGYGSTEAGPVWRDGYLVKPPVTDYKLIDVPELGYFSTDSPHPRGELAIKTQTILPGYYKRPETTAEVFDEDGFYLTGDVVAQIGPEQFAYVDRRKNVLKLSQGEFVTLAKLEAAYSSSPLVRQLFVYGSSERSYLLAVIVPTPDALKKFGVGEAAKAALGESLQKIARDEGLQSYEVPRDFIIETDPFTVENGLLSDARKSLRPKLKEHYGERLEAMYKELADGQANELRDIRRGVQQRPTLETVRRAAAAMLGASAAEIKPDAHFTDLGGDSLSALTFSNFLHDLFEVDVPVGVIVSAANTLGSVAEHIDAQLAGGRARPTFATVHGKGSTTIKASDLTLDKFIDEQTLEAAKHLPKPADPPRTVLLTGANGWLGRFLALEWLERLAPAGGKLITIVRGKDAAQAKARLDAAYESGDPKLAGHYQDLAATTLEVLAGDFSEPRLGLDEATWNRLADEVDFISHPGALVNHVLPYNQLFGPNVAGVAEIIKLAITTRIKPVTYLSTVAVAAGVEPSALDEDGDIRTVSAERSVDEGYANGYGNSKWGGEVLLREAHDRTGLPVRVFRSDMILAHQKYTGQVNATDQFTRLVQSLLATGLAPKSFYELDAQGNRQRAHYDGIPVDFTAESITTLGGDGLEGYRSYNVFNPHRDGVGLDEFVDWLIEAGHPITRIDDYDQWLSRFETSLRGLPESKRQASVLPLLHAFARPGPAVDGSPFRNTVFRTDVQKAKIGAEHDIPHLGKALVLKYADDIKQLGLL | accepted pimelate semialdehyde as substrate | accepted N7-acetyl-7-aminoheptanoate as substrate
– | accepted pimelate as substrate | SEQ ID NO 4: Segniliparus rugosus carboxylate reductase (Genbank Accession No. EFV 11917.1) (protein, listed as Segniliparus rugosus) MGDGEERAKRFFQRIGELSATDPQFAAAAPDPAVVEAVSDPSLSFTRYLDTLMRGYAERPALAHRVGAGYETISYGELWARVGAIAAAWQADGLAPGDFVATVGFTSPDYVAVDLAAARSGLVSVPLQAGASLAQLVGILEETEPKVLAASASSLEGAVACALAAPSVQRLVVFDLRGPDASESAADERRGALADAEEQLARAGRAVVVETLADLAARGEALPEAPLFEPAEGEDPLALLIYTSGSTGAPKGAMYSQRLVSQLWGRTPVVPGMPNISLHYMPLSHSYGRAVLAGALSAGGTAHFTANSDLSTLFEDIALARPTFLALVPRVCEMLFQESQRGQDVAELRERVLGGRLLVAVCGSAPLSPEMRAFMEEVLGFPLLDGYGSTEALGVMRNGIIQRPPVIDYKLVDVPELGYRTTDKPYPRGELCIRSTSLISGYYKRPEITAEVFDAQGYYKTGDVMAEIAPDHLVYVDRSKNVLKLSQGEFVAVAKLEAAYGTSPYVKQIFVYGNSERSFLLAVVVPNAEVLGARDQEEAKPLIAASLQKIAKEAGLQSYEVPRDFLIETEPFTTQNGLLSEVGKLLRPKLKARYGEALEARYDEIAHGQADELRALRDGAGQRPVVETVVRAAVAISGSEGAEVGPEANFADLGGDSLSALSLANLLHDVFEVEVPVRIIIGPTASLAGIAKHIEAERAGASAPTAASVHGAGATRIRASELTLEKFLPEDLLAAAKGLPAADQVRTVLLTGANGWLGRFLALEQLERLARSGQDGGKLICLVRGKDAAAARRRIEETLGTDPALAARFAELAEGRLEVVPGDVGEPKFGLDDAAWDRLAEEVDVIVHPAALVNHVLPYHQLFGPNVVGTAEIIRLAITAKRKPVTYLSTVAVAAGVEPSSFEEDGDIRAVVPERPLGDGYANGYGNSKWAGEVLLREAHELVGLPVAVFRSDMILAHTRYTGQLNVPDQFTRLVLSLLATGIAPKSFYQQGAAGERQRAHYDGIPVDFTAEAITTLGAEPSWFDGGAGFRSFDVFNPHHDGVGLDEFVDWLIEAGHPISRIDDHKEWFARFETAVRGLPEAQRQHSLLPLLRAYSFPHPPVDGSVYPTGKFQGAVKAAQVGSDHDVPHLGKALIVKYADDLKALGLL | – | –
